Source: patent US20240239875A1 (CURIA IP, published 2024)
Positions count from the first letter of the chain named.

B1: 7-N20-A (antibody, V domains shown)
VH: QVQLVETGGGLVRPGNSLKLSCVTSGFTFSNYRMHWLRQPPGKRLEWIGIITDKSDNYGANYAESVKGRFAISRDDSKSSVYLEMKRLREEDTATYFCSRDGYDWYFDLWGTGTTVTVSS
VL: DIVMTQSHKFMSTSVGDRVRITCKASQDVGIVVAWYQQKPGQSPKLLIYWASTRHTGVPDRFTGSGSGTDFTLTISNVQSEDLADYFCQQYSSYPTFGGGTKLEIK
B2: 6-O12-A (antibody, V domains shown)
VH: QVQLQQPGTELVKPGASVKLSCKASGYTFTSYWMHWVKQRPGQGLEWIGNINPSNGGTNYNEKFRSKATLTVDKSSSTAYMQLSSLTSEDSAVYYCARLGWFLPLGSWGQGTTLTVSS
VL: QIVLTQSPAIMSASLGEVITLTCSASSSVSYMHWYQQKSGTSPKLLIYSTSNLASGVPSRFSGSGSGTFYSLTISSVEAEDAADYYCHQWSGYMYTFGGGTKLEIK
B3: 7-D7-A (antibody, V domains shown)
VH: QVQLKESGPGLVAPSQSLSITCTVSGFSLTSYAISWVRQPPGKGLEWLGVIWPGGGTNYNSALKSRLSISKDNSKSQVFLKMNSLQTDDTAKYYCARTGYYFDYWGQGTTLTVSS
VL: QLILTQSPAIMSASPGEKVTMTCSASLSVNYMYWFQQKPGTSPKRWIHDTSKLASGVPARFSGSGSGTSYSLTISSMEAEDAATYYCQQWSSNPPMYTFGGGTKLEIK
B4: 8-A17-A (antibody, V domains shown)
VH: B3 VH with I51V, S70N, A91G, K92R, Y101H
VL: B3 VL with L2I, I3V, A25V, L27S, N30S, Y33H, F35Y, P39S, H48Y
B5: 2-G20-A (antibody, V domains shown)
VH: EVQLQQSGPELVKPGASVKMSCKASGYTFPSYVLHWVKQKPGQGLEWIGYIYPYNDGTNYNEKFKGKATLTSDKSSSTAYMELSSLTSEDSAVYYCARGDYGDSAWFPYWGQGTLVTVSA
VL: DIVLTQSPASLAVSLGQRATISCRASKSVSTSGYSYMHWYQQKPGQPPKLLIYLASNLKSGVPARFSGGGSGTDFTLNIHPVEEEDAATYYCQLSRELPWTFGGGTKLEIK
B6: 9-F6-A (antibody, V domains shown)
VH: EVQLQQSGPELVKPGASVKMSCKASGYTFTSYIMHWVKQKPGQGLEWIGYILPYNDGTKYNEKFKGKATLTSDKSSSTAYMELRSLTSEDSAVYYCARWGYSNFLDSWGQGTTLTVSS
VL: DIQMTQTTSSLSASLGDRVTISCRASQDINNYLNWYQQKPDGTVKLLIYYTSRLHSGVPSRFSGSGSGTDYSLTIRNLEQEDIATYFCQQGNTLPPTFGGGTKLEIK
B7: 1-L10-A (antibody, V domains shown)
VH: EVKLEESGGGLVQPGGSMKLSCVASGFTFNNYWMNWVRQSPEKGLEWVAQMRLKSDNYATHYAESVKGRFTISRDDSKSSVYLQMNNLRAEDTGIYYCIEGYWTYWGQGTLVTVSA
VL: QIVLTQSPAIMSASLGERVTMTCTASSSVSSSYLHWYQQKPGSSPKLWIYSTSNLASGVPARFSGNGSGTSYSLTISSMEAEDAATYYCLQYHRSPPYTFGGGTKLEIK

What follows are binders tested against T1, SARS-CoV-2 S2 domain (SARS-CoV-2, UniProt P0DTC2 686-1213) (assay: ELISA (FIG. 10 summary)).

**Q.** Does B1 bind?
**A.** no binding

Each binder was assayed against T1, SARS-CoV-2 S2 domain (assay: ELISA (FIG. 2C grouping)).

**Q.** Does B2 bind?
**A.** no binding

**Q.** Does B3 bind?
**A.** no binding

**Q.** Does B4 bind?
**A.** no binding

**Q.** Does B5 bind?
**A.** no binding

**Q.** Does B6 bind?
**A.** no binding

**Q.** Does B7 bind?
**A.** no binding
